Measurements taken from PMC6330322.

Key:
[1] = target: NrnC from Agrobacterium tumefaciens (Agrobacterium tumefaciens str. C58); experiment: SEC; Superdex 200, 25 mM Tris-HCl pH 8.0, 100 mM NaCl; calibrated with Ec_RND, Tle1, conalbumin and aldolase; self-association, octamer
[2] = target: NrnC from Agrobacterium tumefaciens (Agrobacterium tumefaciens str. C58); experiment: AUC; sedimentation velocity, 1 mg/mL At_NrnC in 25 mM Tris-HCl pH 8.0, 100 mM NaCl, without or with 5 mM MnCl2, 60,000 rpm, 20°C, Sedfit; self-association, octamer
[3] = target: NrnC from Agrobacterium tumefaciens (Agrobacterium tumefaciens str. C58); experiment: crystal structure; apo and Mn2+-soaked crystals, space group I422, two protomers in the asymmetric unit; octamer from crystal packing, interfaces analysed with PISA

Measured: stoichiometry N

NrnC from Agrobacterium tumefaciens (enzyme)
8: all assays above
